Data on eleven molecules can be found in publication PMC10902354, “Deficiency in PHD2-mediated hydroxylation of HIF2α underlies Pacak-Zhuang syndrome” (Communications Biology, 2024).

For experiment [1], the target named is T1, PHD2 (prolyl-hydroxylase domain, residues 181–426) (Homo sapiens, UniProt Q9GZT9).
T1 construct: encodes for His6-PHD2 (prolyl-hydroxylase domain, residues 181–426); His6 (N, cleaved yes); made in house; host or cells: E. coli BL21(DE3)
Description: Microscale thermophoresis (MST) binding of HIFα-CODD peptides to the catalytic domain of PHD2. The note with it: MST; for Kd relative to WT HIF2α-CODD: fold of the HIF2α WT Kd; for PHD2 affinity / Kd compared with another peptide (in words): with NOG; for Kd (MST-determined PHD2/HIFα-CODD complex dissociation constant): 25 nM Alexa 647-labeled PHD2, Tris–HCl with NOG (1 mM NOG, 10 µM FeSO4, 5 mg/ml BSA in 2x MST Buffer pH 7.5), peptide in Tris pH 8.0, room temperature, 10 min incubation, 1:1 Kd model, triplicate measurements, highest concentration omitted for Y532H and P531A (aggregation); for Kd (Fit Results, Fit Model Kd): target WT-PHD2(181-426), TargetConcentration 2.5e-8, ligand HIF2a-CODD peptide, MST-Power Medium, Excitation-Power 20 Nano - RED, hot region 19 to 20, unit of Kd not printed (doses of the same sheet are in M), Fig. 1c source data. Here is the method: To determine if there is a direct effect of HIF2α mutations on PHD2 binding, we devised a quantitative method for determining the dissociation constant (Kd) of the HIF2α-CODD peptides and the catalytic domain of PHD2 using microscale thermophoresis (MST)[13],[14] in the presence of the PHD inhibitor n-oxalylglycine (NOG) to inhibit reaction turnover.
PHD2 was purified via a previously described but modified procedure[4],[30]. […] Cells were grown to an OD600 of 0.8 at 37 °C and expression of His6-PHD2 was induced with a final concentration of 0.5 mM IPTG. Cells were grown for an additional 3 h post-induction at 37 °C and harvested via centrifugation. Cell pellets were either used immediately for purification or stored at −80 °C for later use. Cell pellets were resuspended in Lysis Buffer (50 mM Tris–HCl pH 7.9, 500 mM NaCl, 5 mM Imidazole) containing 1x SigmaFast protease inhibitor cocktail (Sigma-Aldrich) and lysed with 3 passes through an Emulsiflex-C3 cell disruptor (Avestin) at 20-30 kPSI. […] Clarified lysates were applied to a 2 ml Ni-NTA (Thermo Scientific) column pre-equilibrated with Lysis Buffer. The beads were washed with 10 ml Lysis buffer and 2 × 30 ml of Wash Buffer (50 mM Tris–HCl pH 7.9, 500 mM NaCl, 30 mM Imidazole). His6-PHD2 was eluted by applying 10 ml Elution Buffer (50 mM Tris–HCl pH 7.9, 500 mM NaCl, 1 M Imidazole) to the column. Ni-NTA purified His6-PHD2 was dialyzed using a 10 kDa cut-off dialysis membrane against 2 L of Dialysis Buffer (50 mM Tris–HCl pH 7.5) for 4 h at 4 °C. […] Dialysis and thrombin cleavage were allowed to continue overnight at 4 °C. Thrombin-cleaved PHD2 was collected and applied to a 2 ml Ni-NTA column pre-equilibrated with Dialysis Buffer to remove uncleaved protein and cleaved His6 tags. The flow-through was collected and the beads were washed with 10 ml of Dialysis Buffer supplemented with 5 mM imidazole. The 5 mM imidazole eluate was pooled with the flow through and concentrated with an Amicon 10 kDa cut-off centrifugal concentrator (Millipore) to a volume of ~600 µl. The concentrated PHD2 was then applied to a Superdex 75 Increase 10/300 GL column (Cytiva) equilibrated with Dialysis Buffer or Labeling Buffer (50 mM HEPES pH 7.5, 150 mM NaCl) depending on the intended use of the sample. Eluted fractions containing PHD2 were collected and pooled. For the His6-PHD2 used in the indirect hydroxylation assay, no thrombin was added during dialysis steps therefore the His6-tag was not removed and the subsequent passage of the sample through Ni-NTA beads to remove His6-tags was not performed. Otherwise, the purification protocol for His6-PHD2 is the same as thrombin-cleaved PHD2. All purification steps were analyzed by SDS–PAGE and the Superdex 75 Increase chromatogram was used to assess size and aggregation, see Supplementary Fig. 5 for a representative purification assessment.
Labeling was conducted at room temperature for 1 h in the dark. Excess dye was then removed first by the passage of the sample through a PD-10 desalting column containing Sephadex G-25 resin (Cytiva) equilibrated with Dialysis Buffer and then any remaining excess dye was removed via repeated 10-fold dilution in Dialysis Buffer and subsequent concentration in an Amicon 10 kDa cut off centrifugal filter until the dye could no longer be detected in the concentrator flow through by Absorbance at 650 nm.
MST measurements were taken using a Monolith NT.115 (Nanotemper Technologies) at room temperature using standard MST capillaries (Nanotemper Technologies). […] For each HIFα-CODD peptide, ~1 mg dry weight of peptide was dissolved in 200 µl of 50 mM Tris–HCl pH 8.0 and concentrations were measured using UV absorbance at 280 nm for most peptides and BCA assay (Thermo Scientific) for Y532C and Y532H peptides using known concentrations of the WT HIF2α-CODD peptide to create a standard curve.
(In general: Microscale thermophoresis detects binding through changes in fluorescence in a small temperature gradient.)

Experiment [2] concerns the target T2, Alexa 647 labeled PHD2 (catalytic / prolyl-hydroxylase domain, residues 181-426) (human, UniProt Q9GZT9 181-426, Alexa Fluor 647 N-hydroxysuccinimide ester dye, 1-2 dye molecules per protein molecule).
T2 construct: PHD2, prolyl-hydroxylase domain (catalytic domain), residues 181-426, from pET-46-HIS6-PHD2; Same construct as m2, dye-labeled for MST; also called PHD2-647; source: E. coli BL21(DE3), purified (Ni-NTA, thrombin cleavage, Superdex 75), labeled with Alexa Fluor 647 NHS ester
Description: MST; 25 nM Alexa 647 labeled PHD2, unlabeled peptide in 16 two-fold dilutions; room temperature; MST Buffer 50 mM Tris-HCl pH 7.5, 1 mM NOG, 10 µM FeSO4, 5 mg/ml BSA mixed 1:1 with peptide in 50 mM Tris-HCl pH 8.0; 1:1 Kd model; triplicate. The note with it: both partners purified.

Peptide text beside a SMILES is read from it.

T2 sequence (Q9GZT9 181-426): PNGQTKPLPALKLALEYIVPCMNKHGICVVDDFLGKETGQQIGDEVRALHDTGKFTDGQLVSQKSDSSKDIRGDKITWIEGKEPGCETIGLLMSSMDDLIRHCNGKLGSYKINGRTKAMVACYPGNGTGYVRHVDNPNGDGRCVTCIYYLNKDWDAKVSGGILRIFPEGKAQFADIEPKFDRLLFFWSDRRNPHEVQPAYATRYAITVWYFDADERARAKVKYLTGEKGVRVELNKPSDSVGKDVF
T1 sequence (Q9GZT9 181-426): as above

With `CC[C@H](C)[C@H](NC(=O)[C@H](Cc1ccc(O)cc1)NC(=O)[C@@H]1CCCN1C(=O)[C@H](C)NC(=O)[C@H](CC(C)C)NC(=O)[C@@H](NC(=O)[C@H](CCC(=O)O)NC(=O)[C@H](CC(C)C)NC(=O)[C@H](CC(=O)O)NC(=O)[C@H](CC(C)C)NC(=O)[C@H](CCC(=O)O)NC(C)=O)[C@@H](C)O)C(=O)N1CCC[C@H]1C(=O)N[C@@H](CCSC)C(=O)N[C@@H](CC(=O)O)C(=O)N[C@@H](Cc1c[nH]c2ccccc12)C(=O)N[C@@H](CCC(=O)O)C(=O)N[C@@H](CC(=O)O)C(=O)N[C@@H](Cc1ccccc1)C(=O)N[C@@H](CCC(N)=O)C(=O)N[C@@H](CC(C)C)C(N)=O` [HIF2α G537W] (Ac-ELDLETLAPYIPMDWEDFQL-NH2), the “Kd relative to WT HIF2α-CODD” value in experiment [1] is on record as 2.4 × WT. On to `CC[C@H](C)[C@H](NC(=O)[C@H](Cc1ccc(O)cc1)NC(=O)[C@@H]1CCCN1C(=O)[C@H](C)NC(=O)[C@H](CC(C)C)NC(=O)[C@H](CCSC)NC(=O)[C@H](CCC(=O)O)NC(=O)[C@H](CC(C)C)NC(=O)[C@H](CC(=O)O)NC(=O)[C@H](CC(C)C)NC(=O)[C@H](CCC(=O)O)NC(C)=O)C(=O)N1CCC[C@H]1C(=O)N[C@@H](CCSC)C(=O)N[C@@H](CC(=O)O)C(=O)NCC(=O)N[C@@H](CCC(=O)O)C(=O)N[C@@H](CC(=O)O)C(=O)N[C@@H](Cc1ccccc1)C(=O)N[C@@H](CCC(N)=O)C(=O)N[C@@H](CC(C)C)C(N)=O` [HIF2α T528M] (Ac-ELDLEMLAPYIPMDGEDFQL-NH2), for which the “PHD2 affinity / Kd compared with another peptide (in words)” value in experiment [1] was “intermediate affinity”.

Take `CC[C@H](C)[C@H](NC(=O)[C@H](Cc1ccc(O)cc1)NC(=O)[C@@H]1CCCN1C(=O)[C@@H](NC(=O)[C@H](CC(C)C)NC(=O)[C@@H](NC(=O)[C@H](CCC(=O)O)NC(=O)[C@H](CC(C)C)NC(=O)[C@H](CC(=O)O)NC(=O)[C@H](CC(C)C)NC(=O)[C@H](CCC(=O)O)NC(C)=O)[C@@H](C)O)[C@@H](C)O)C(=O)N1CCC[C@H]1C(=O)N[C@@H](CCSC)C(=O)N[C@@H](CC(=O)O)C(=O)NCC(=O)N[C@@H](CCC(=O)O)C(=O)N[C@@H](CC(=O)O)C(=O)N[C@@H](Cc1ccccc1)C(=O)N[C@@H](CCC(N)=O)C(=O)N[C@@H](CC(C)C)C(N)=O` [HIF2α A530T]: the “PHD2 affinity / Kd compared with another peptide (in words)” value in experiment [1] is listed as “significant effect on PHD2 binding affinity”. With `CC[C@H](C)[C@H](NC(=O)[C@H](Cc1c[nH]cn1)NC(=O)[C@@H]1CCCN1C(=O)[C@H](C)NC(=O)[C@H](CC(C)C)NC(=O)[C@@H](NC(=O)[C@H](CCC(=O)O)NC(=O)[C@H](CC(C)C)NC(=O)[C@H](CC(=O)O)NC(=O)[C@H](CC(C)C)NC(=O)[C@H](CCC(=O)O)NC(C)=O)[C@@H](C)O)C(=O)N1CCC[C@H]1C(=O)N[C@@H](CCSC)C(=O)N[C@@H](CC(=O)O)C(=O)NCC(=O)N[C@@H](CCC(=O)O)C(=O)N[C@@H](CC(=O)O)C(=O)N[C@@H](Cc1ccccc1)C(=O)N[C@@H](CCC(N)=O)C(=O)N[C@@H](CC(C)C)C(N)=O` [HIF2α Y532H] (Ac-ELDLETLAPHIPMDGEDFQL-NH2), in experiment [1], the “PHD2 affinity / Kd compared with another peptide (in words)” value was “near wild-type affinity” and the “Kd relative to WT HIF2α-CODD” value amounted to 1.2 × WT.

Take “HIF2α L529P: Class 1 mutant HIF2α-CODD peptide (Ac-ELDLETPAPYIPMDGEDFQL-NH2)”: in experiment [1], the “Kd (MST-determined PHD2/HIFα-CODD complex dissociation constant)” value is given as “No binding” and the “Kd (Fit Results, Fit Model Kd)” value worked out at 0.01043. In the case of “HIF2α P531L: Class 1 mutant HIF2α-CODD peptide (Ac-ELDLETLALYIPMDGEDFQL-NH2)”, the “Kd (MST-determined PHD2/HIFα-CODD complex dissociation constant)” value in experiment [1] is on record as “No binding”. As to “HIF2α Y532C: Class 1 mutant HIF2α-CODD peptide (Ac-ELDLETLAPCIPMDGEDFQL-NH2)”, the “PHD2 affinity / Kd compared with another peptide (in words)” value in experiment [1] is given as “strongly detrimental to the interaction of PHD2 with HIF2α-CODD”.

With “HIF2α P531S: Class 1 mutant HIF2α-CODD peptide (Ac-ELDLETLASYIPMDGEDFQL-NH2)”, in experiment [1], the “Kd (MST-determined PHD2/HIFα-CODD complex dissociation constant)” value is reported as “No binding” and the “Kd (Fit Results, Fit Model Kd)” value worked out at 0.01316.

B1: HIF2α-CODD A530T peptide (peptide, UniProt Q99814 523-542, looked up)
peptide: Ac-ELDLETLTPYIPMDGEDFQL-NH2
notes: HIF2α (EPAS1) CODD peptide, human, as m3 with the disease mutation A530T (Class 1); also called HIF2α A530T; source: synthetic peptide (Genscript, ≥95% purity)
As a reminder, the Kd is a measure of binding affinity in units of concentration. A low value points to higher affinity. Take B1: binding in experiment [2] was characterised by a dissociation constant (Kd) of 627 ± 126 µM.

B2: HIF2α-CODD G537R peptide (peptide, UniProt Q99814 523-542, looked up)
peptide: Ac-ELDLETLAPYIPMDREDFQL-NH2
notes: HIF2α (EPAS1) CODD peptide, human, as m3 with the disease mutation G537R (Class 2); also called HIF2α G537R; source: synthetic peptide (Genscript, ≥95% purity)
In the case of B2, binding in experiment [2] was put at a Kd of 175 ± 20 µM.

B3: HIF2α-CODD Y532H peptide (peptide, UniProt Q99814 523-542, looked up)
peptide: Ac-ELDLETLAPHIPMDGEDFQL-NH2
notes: HIF2α (EPAS1) CODD peptide, human, as m3 with the disease mutation Y532H (Class 2); also called HIF2α Y532H; source: synthetic peptide (Genscript, ≥95% purity)
In the case of B3, the Kd in experiment [2] came to 41 ± 5 µM.
